Assay results from article PMC12290011, “Pseudomonadal itaconate degradation gene cluster encodes enzymes for methylsuccinate utilization” (Communications Biology, 2025).

How the values were obtained:
[1] = target: T1, C. necator MmgE/PrpD family protein, (S)-(R)-methylsuccinate isomerase (Cupriavidus necator, UniProt Q0K3E6); experiment: coupled assay with C. necator itaconate CoA transferase, UHPLC; format: biochemical; conditions: 2.5 mM substrate, pH 7.0, 5 mM MgCl2, 30 °C
T1 construct: gene prpD2; synthetic codon-optimized gene in pET16b, His-tagged, E. coli BL21(DE3), Ni-NTA purified
T1 sequence (Q0K3E6 1-460): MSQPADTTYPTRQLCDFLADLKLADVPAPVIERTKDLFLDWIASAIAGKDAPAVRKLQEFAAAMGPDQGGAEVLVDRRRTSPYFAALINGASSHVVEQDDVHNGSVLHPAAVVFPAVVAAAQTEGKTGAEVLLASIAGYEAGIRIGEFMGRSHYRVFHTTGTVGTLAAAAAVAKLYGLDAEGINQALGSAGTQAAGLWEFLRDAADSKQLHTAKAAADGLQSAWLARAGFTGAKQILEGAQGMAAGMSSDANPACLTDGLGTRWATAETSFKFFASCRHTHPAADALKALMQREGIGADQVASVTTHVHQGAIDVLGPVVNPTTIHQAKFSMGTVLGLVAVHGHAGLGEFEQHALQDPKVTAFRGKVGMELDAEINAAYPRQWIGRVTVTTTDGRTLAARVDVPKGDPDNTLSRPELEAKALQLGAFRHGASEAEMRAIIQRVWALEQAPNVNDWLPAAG

[2] = target: T2, Pa. xenovorans MmgE/PrpD family protein Bxe_B2582 (Paraburkholderia xenovorans, UniProt Q13R78); experiment: as above; format: biochemical; conditions: 2.5 mM substrate, pH 7.0, 5 mM MgCl2, 30 °C
T2 construct: pET16b, His-tagged, E. coli BL21(DE3), Ni-NTA purified
T2 sequence (Q13R78 1-494): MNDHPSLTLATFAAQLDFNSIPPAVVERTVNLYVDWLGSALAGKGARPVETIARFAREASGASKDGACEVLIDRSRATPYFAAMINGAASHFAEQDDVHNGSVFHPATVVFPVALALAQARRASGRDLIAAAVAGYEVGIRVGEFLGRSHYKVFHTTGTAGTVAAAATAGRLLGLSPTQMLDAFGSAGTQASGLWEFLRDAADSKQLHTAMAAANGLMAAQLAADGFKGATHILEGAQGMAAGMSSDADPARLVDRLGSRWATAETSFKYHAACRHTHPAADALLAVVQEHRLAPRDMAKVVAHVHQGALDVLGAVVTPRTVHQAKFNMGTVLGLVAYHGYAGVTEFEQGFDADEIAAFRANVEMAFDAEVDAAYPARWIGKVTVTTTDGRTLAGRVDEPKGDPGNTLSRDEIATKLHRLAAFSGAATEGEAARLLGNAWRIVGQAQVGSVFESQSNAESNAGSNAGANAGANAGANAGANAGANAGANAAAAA

[3] = target: T3, P. aeruginosa MmgE/PrpD family protein, (S)-(R)-methylsuccinate isomerase (Pseudomonas aeruginosa, UniProt Q9I564); experiment: as above; format: biochemical; conditions: 2.5 mM substrate, pH 7.0, 5 mM MgCl2, 30 °C
T3 construct: gene PA0881; synthetic codon-optimized gene in pET16b, His-tagged, E. coli BL21(DE3), Ni-NTA purified
T3 sequence (Q9I564 1-450): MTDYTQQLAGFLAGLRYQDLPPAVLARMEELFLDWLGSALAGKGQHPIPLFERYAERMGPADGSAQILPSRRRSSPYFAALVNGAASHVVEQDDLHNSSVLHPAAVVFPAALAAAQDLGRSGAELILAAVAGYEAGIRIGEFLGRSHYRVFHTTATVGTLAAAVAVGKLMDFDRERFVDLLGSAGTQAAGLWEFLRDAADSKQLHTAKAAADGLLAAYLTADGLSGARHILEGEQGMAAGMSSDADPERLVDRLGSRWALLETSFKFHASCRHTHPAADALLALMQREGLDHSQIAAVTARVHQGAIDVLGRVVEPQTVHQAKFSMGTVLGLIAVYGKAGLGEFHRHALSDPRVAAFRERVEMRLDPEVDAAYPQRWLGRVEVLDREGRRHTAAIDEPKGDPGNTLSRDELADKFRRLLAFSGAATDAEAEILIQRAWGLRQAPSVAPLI

[4] = tested on: C=C(CC(=O)O)C(=O)O; experiment: purified protein; conditions: 1 mM succinyl-CoA, pH 7.0, 5 mM MgCl2, 30 °C
Text: (§4) UHPLC assay of CoA-esters on P. aeruginosa itaconate CoA transferase

[5] = tested on: C[C@H](CC(=O)O)C(=O)O; experiment: purified protein; conditions: 1 mM succinyl-CoA, pH 7.0, 5 mM MgCl2, 30 °C
Text: as §4

[6] = tested on: C[C@@H](CC(=O)O)C(=O)O; experiment: purified protein; conditions: 1 mM succinyl-CoA, pH 7.0, 5 mM MgCl2, 30 °C
Text: as §4

[7] = substrate: O=C(O)C[C@H](O)C(=O)O; experiment: purified protein; conditions: 1 mM succinyl-CoA, pH 7.0, 5 mM MgCl2, 30 °C
[8] = substrate: C[C@](O)(CC(=O)O)C(=O)O; experiment: UHPLC assay of CoA-esters; format: biochemical, Cupriavidus necator; conditions: 1 mM succinyl-CoA, pH 7.0, 5 mM MgCl2, 30 °C
Text: (§1) UHPLC assay of CoA-esters on C. necator itaconate CoA transferase

[9] = substrate: C[C@H](CC(=O)O)C(=O)O; experiment: UHPLC assay of CoA-esters; format: biochemical, Cupriavidus necator; conditions: 1 mM succinyl-CoA, pH 7.0, 5 mM MgCl2, 30 °C
Text: as §1

[10] = substrate: CC(C)(COP(=O)(O)OP(=O)(O)OC[C@H]1O[C@@H](n2cnc3c(N)ncnc32)[C@H](O)[C@@H]1OP(=O)(O)O)[C@@H](O)C(=O)NCCC(=O)NCCSC(=O)CCC(=O)O; experiment: UHPLC assay of CoA-esters; format: biochemical, Cupriavidus necator; conditions: 10 mM itaconate, pH 7.0, 5 mM MgCl2, 30 °C
Text: as §1

[11] = substrate: O=C(O)CCCC(=O)O; experiment: UHPLC assay of CoA-esters; format: biochemical, Cupriavidus necator; conditions: 1 mM succinyl-CoA, pH 7.0, 5 mM MgCl2, 30 °C
Text: as §1

[12] = substrate: C[C@@H](CC(=O)O)C(=O)O; experiment: UHPLC assay of CoA-esters; format: biochemical, Cupriavidus necator; conditions: 1 mM succinyl-CoA, pH 7.0, 5 mM MgCl2, 30 °C
Text: as §1

[13] = substrate: C=C(CC(=O)O)C(=O)O; experiment: UHPLC assay of CoA-esters; format: biochemical, Cupriavidus necator; conditions: 1 mM succinyl-CoA, pH 7.0, 5 mM MgCl2, 30 °C
Text: as §1

[14] = substrate: C[C@H](CC(=O)SCCNC(=O)CCNC(=O)[C@H](O)C(C)(C)COP(=O)(O)OP(=O)(O)OC[C@H]1O[C@@H](n2cnc3c(N)ncnc32)[C@H](O)[C@@H]1OP(=O)(O)O)C(=O)O; experiment: UHPLC assay of mesaconyl-CoA formation; format: biochemical, Cupriavidus necator; conditions: 1 mM phenazine methosulfate as electron acceptor, pH 7.0, 5 mM MgCl2, 30 °C
Text: (§2) UHPLC assay of mesaconyl-CoA formation on C. necator methylsuccinyl-C4-CoA dehydrogenase

[15] = substrate: C[C@@H](CC(=O)SCCNC(=O)CCNC(=O)[C@H](O)C(C)(C)COP(=O)(O)OP(=O)(O)OC[C@H]1O[C@@H](n2cnc3c(N)ncnc32)[C@H](O)[C@@H]1OP(=O)(O)O)C(=O)O; experiment: UHPLC assay of mesaconyl-CoA formation; format: biochemical, Cupriavidus necator; conditions: 1 mM phenazine methosulfate as electron acceptor, pH 7.0, 5 mM MgCl2, 30 °C
Text: as §2

[16] = substrate: C[C@H](CC(=O)SCCNC(=O)CCNC(=O)[C@H](O)C(C)(C)COP(=O)(O)OP(=O)(O)OC[C@H]1O[C@@H](n2cnc3c(N)ncnc32)[C@H](O)[C@@H]1OP(=O)(O)O)C(=O)O; experiment: UHPLC assay of mesaconyl-CoA formation; format: biochemical, Pseudomonas aeruginosa; conditions: 1 mM phenazine methosulfate as electron acceptor, pH 7.0, 5 mM MgCl2, 30 °C
Text: (§3) UHPLC assay of mesaconyl-CoA formation on P. aeruginosa methylsuccinyl-C4-CoA dehydrogenase

[17] = substrate: C[C@@H](CC(=O)SCCNC(=O)CCNC(=O)[C@H](O)C(C)(C)COP(=O)(O)OP(=O)(O)OC[C@H]1O[C@@H](n2cnc3c(N)ncnc32)[C@H](O)[C@@H]1OP(=O)(O)O)C(=O)O; experiment: UHPLC assay of mesaconyl-CoA formation; format: biochemical, Pseudomonas aeruginosa; conditions: 1 mM phenazine methosulfate as electron acceptor, pH 7.0, 5 mM MgCl2, 30 °C
Text: as §3

C[C@@H](CC(=O)O)C(=O)O [(S)-Methylsuccinate]
coupled assay with C. necator itaconate CoA transferase, UHPLC [1]: both MmgE/PrpD proteins catalyzed the isomerization of (S)-methylsuccinate to (R)-methylsuccinate
coupled assay with C. necator itaconate CoA transferase, UHPLC [2]: we tested the isomerase activity of the Pa. xenovorans MmgE/PrpD family protein Bxe_B2582
coupled assay with C. necator itaconate CoA transferase, UHPLC [3]: both MmgE/PrpD proteins catalyzed the isomerization of (S)-methylsuccinate to (R)-methylsuccinate

P. aeruginosa itaconate CoA transferase (Pseudomonas aeruginosa PAO1)
Km [4]: 0.8 ± 0.3 mM
Vmax [4]: 73 µmol/min/mg
kcat/Km [4]: 66300 M⁻¹ s⁻¹
Km [5]: 0.6 ± 0.2 mM
Vmax [5]: 69.8 µmol/min/mg
kcat/Km [5]: 88000 M⁻¹ s⁻¹
Km [6]: 17.8 ± 8.0 mM
Vmax [6]: 54.3 µmol/min/mg
kcat/Km [6]: 2200 M⁻¹ s⁻¹

C[C@H](CC(=O)O)C(=O)O [(R)-Methylsuccinate]
coupled assay with C. necator itaconate CoA transferase, UHPLC [1]: both MmgE/PrpD proteins catalyzed the isomerization of (S)-methylsuccinate to (R)-methylsuccinate
coupled assay with C. necator itaconate CoA transferase, UHPLC [2]: we tested the isomerase activity of the Pa. xenovorans MmgE/PrpD family protein Bxe_B2582
coupled assay with C. necator itaconate CoA transferase, UHPLC [3]: both MmgE/PrpD proteins catalyzed the isomerization of (S)-methylsuccinate to (R)-methylsuccinate

B1: C. necator itaconate CoA transferase (Cupriavidus necator H16) (protein)
chain: MSHSPKGIRPLDGIRVVSLEHAVAAPFATRQLADLGARVIKIERPGVGDFARGYDQSVHGQASYFVWLNRGKESLTLDLKDREAQAILHRLLADADVLVQNLAPGAAVRMGLDFDSLHGKYDKLIVCDISGYGDSGPYRDKKAYDLLIQAAAGLVGLTGGPNEPSRAGVSIADISAGMYAYSGILSALLQRGRTGKGLRVQVTMLEAMAEWMNQVLYFGHYGGKPPGRFGASHPTIAPYGVHRTGNGSVIFSVQNEREFANFCEIVLGNRELAQDERFSSNTARVHNRPELTAIIEERFAPMTVAQAEALLDEAQIANAPMNDIEGVWNHPQLQARQRWREVATPGGPIGALLPPANLSGVEPVMGDVPALGAHSRQILAELGYDDGDIAALADKRTI
notes: pET16b, N-terminal His-tag, E. coli BL21(DE3), Ni-NTA purified
Km [7]: 42.8 ± 17.2 mM
Vmax [7]: 1.1 µmol/min/mg
kcat/Km [7]: 20 M⁻¹ s⁻¹
Km [8]: 15.6 ± 2.3 mM
Vmax [8]: 10.2 µmol/min/mg
kcat/Km [8]: 500 M⁻¹ s⁻¹
Km [9]: 0.9 ± 0.1 mM
Vmax [9]: 82 µmol/min/mg
kcat/Km [9]: 65200 M⁻¹ s⁻¹
Km [10]: 0.76 ± 0.2 mM
Vmax [10]: 116 µmol/min/mg
kcat/Km [10]: 109000 M⁻¹ s⁻¹
Km [11]: 37.4 ± 8.9 mM
Vmax [11]: 3.2 µmol/min/mg
kcat/Km [11]: 60 M⁻¹ s⁻¹
Km [12]: 35.6 ± 3.2 mM
Vmax [12]: 35.6 µmol/min/mg
kcat/Km [12]: 700 M⁻¹ s⁻¹
Km [13]: 4.0 ± 1.7 mM
Vmax [13]: 53.2 µmol/min/mg
kcat/Km [13]: 9500 M⁻¹ s⁻¹

B2: C. necator methylsuccinyl-C4-CoA dehydrogenase (Cupriavidus necator H16) (protein)
chain: MHAHQDPDQLYPEIREAVRDLCAGFDSAYWQRVEEQNAFPETFVQALTQAGWLSALIPEAYGGSGLSLTAASVIMEEINRSGGNSGACHGQMYVMGCLLRHGSEAQKQRWLPGIASGELRMQSMAVTEPTTGTDTTKLKTTAVRQGDKYIVNGQKVWISRVQHSDLMLLLARTTPLDQVKRKSEGLSVFVVDLRDAIGKGLTVKPIRNMVNHETNELFFDNLEVPAGNLIGEEGKGLKYILDGLNAERILIAAECIGDGYWFVERASNYARDRIVFDRPIGQNQAVQFPIARSYINVEAASLMRYKASQLFDAGKPCGKEANISKLLAADASWEAANVCLQTHGGFGFAAEYDIERKFRETRLYQVAPISTNLILSYVAEHVLELPRSF
notes: pET23b, His-tagged, E. coli BL21(DE3), Ni-NTA purified with FAD in buffers
Km [14]: 0.36 ± 0.08 mM
Vmax [14]: 0.72 µmol/min/mg
kcat/Km [14]: 1500 M⁻¹ s⁻¹
Km [15]: 0.42 ± 0.14 mM
Vmax [15]: 0.69 µmol/min/mg
kcat/Km [15]: 1200 M⁻¹ s⁻¹

B3: P. aeruginosa methylsuccinyl-C4-CoA dehydrogenase (Pseudomonas aeruginosa PAO1) (protein)
chain: MNPNSEELNAIREGVRALCAEFDAAYWRRIDEQRGFPEAFVKALTDAGWLSAMIPEEYGGSGLGLAEASVILEEVNRCGGNSGTVHGQMYNMFTLLRNGSEAQKRFYLPKLASGELRLQSMGVTEPTTGTDTTKIKTTAVRKGDRYVINGQKVWISRIQHSDLMILLARTTPLAEVKRKSEGMSIFLVDLREAIGKGLTVQPIANMVNHETNELFFDNLEIPADSLIGEEGKGFRYILDGLNAERTLIAAECIGDGRWFIDKASHYARDRVVFGRPIGQNQGVQFPIAEAHIEVEAADLMRWRACQEYDAGLNAGASANMAKYLAAKASWEAANACLQTHGGFGFACEYDVERKFRETRLYQVAPISTNLILSYVAEHLLELPRSF
notes: synthetic codon-optimized gene in pET23a, His-tagged, E. coli BL21(DE3), Ni-NTA purified with FAD in buffers
Km [16]: 0.59 ± 0.14 mM
Vmax [16]: 3.38 µmol/min/mg
kcat/Km [16]: 4100 M⁻¹ s⁻¹
Km [17]: 0.47 ± 0.13 mM
Vmax [17]: 2.8 µmol/min/mg
kcat/Km [17]: 4300 M⁻¹ s⁻¹
